According to patent US20020132350:

Biological target: MuA transposase (Bacteriophage Mu) (UniProt P07636)
Test: cell_activity

Sequence of MuA transposase (Bacteriophage Mu) (P07636 whole entry): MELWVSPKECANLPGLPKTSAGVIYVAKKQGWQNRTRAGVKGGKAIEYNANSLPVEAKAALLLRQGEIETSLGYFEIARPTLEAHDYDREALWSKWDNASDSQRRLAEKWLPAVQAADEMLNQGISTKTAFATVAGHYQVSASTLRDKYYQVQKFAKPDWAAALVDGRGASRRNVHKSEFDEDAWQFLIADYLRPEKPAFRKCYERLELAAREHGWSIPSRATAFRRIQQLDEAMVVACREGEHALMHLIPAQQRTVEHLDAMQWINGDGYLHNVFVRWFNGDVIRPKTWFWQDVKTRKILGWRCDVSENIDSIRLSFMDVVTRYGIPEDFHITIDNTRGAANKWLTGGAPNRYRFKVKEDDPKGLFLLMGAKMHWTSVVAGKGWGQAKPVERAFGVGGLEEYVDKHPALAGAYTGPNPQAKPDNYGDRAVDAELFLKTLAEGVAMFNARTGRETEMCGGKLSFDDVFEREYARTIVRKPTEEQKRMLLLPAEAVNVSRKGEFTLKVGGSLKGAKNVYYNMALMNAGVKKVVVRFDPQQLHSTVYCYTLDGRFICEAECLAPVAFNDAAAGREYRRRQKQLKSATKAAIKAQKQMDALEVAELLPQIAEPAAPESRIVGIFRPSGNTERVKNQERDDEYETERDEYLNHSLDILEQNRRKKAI

Substance: PC-4 SpeI/BglII fragment (precleaved mini-Mu, inverted R1-R2-R3 ends flanking CAM)
- activity (induced MuA (0.5 mM IPTG), replicate 204, uninduced 1 and 3): 240 colonies
- activity (preformed CDC (25 mM HEPES pH 7.6, 130 mM NaCl, 10 mM MgCl2, 15% DMSO, 15% glycerol, 30 C 1 h) electroporated into E. coli, 16 blue, 4 white, fragment without …): 20 colonies

Substance: PC-4 SpeI/BglII fragment with attached lacZ-100 ssDNA navigator
- activity (same conditions, 26 blue, 5 white): 31 colonies

Substance: PC-4 fragment with lacZ-100 navigator via biotin/streptavidin
- activity (biotin/streptavidin bridge, induced MuA, uninduced 0): 58 colonies
